The values below come from PMC6891085.

pKd: −log10 of the molar value. Like-named read-outs stand apart in the source and are kept apart here.

Test in all cases: co-sedimentation
The target of test [1] is taxol-stabilized microtubules (MTs) of porcine brain tubulin (porcine) (UniProt P02550).
Test [2] has the same target. This is another data set of the same source.
For test [3], the target named is subtilisin-treated MTs (s-MTs) (porcine) (UniProt P02550).

UniProt P02550, sequence (P02550 whole entry): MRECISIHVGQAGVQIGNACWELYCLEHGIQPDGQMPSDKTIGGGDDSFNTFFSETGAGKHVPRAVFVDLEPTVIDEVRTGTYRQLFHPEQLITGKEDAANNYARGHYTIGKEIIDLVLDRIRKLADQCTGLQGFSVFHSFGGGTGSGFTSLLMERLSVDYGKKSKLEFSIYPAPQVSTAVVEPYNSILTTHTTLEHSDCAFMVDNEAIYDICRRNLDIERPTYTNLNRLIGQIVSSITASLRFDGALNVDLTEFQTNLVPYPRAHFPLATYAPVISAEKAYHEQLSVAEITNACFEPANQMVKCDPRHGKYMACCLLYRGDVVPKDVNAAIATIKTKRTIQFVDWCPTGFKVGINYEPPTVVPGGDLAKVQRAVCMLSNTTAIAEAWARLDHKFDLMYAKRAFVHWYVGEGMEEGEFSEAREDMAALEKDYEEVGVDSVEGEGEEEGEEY

As for “Abl2 with MBP cleaved off (from UniProt Q4JIM5 74-1182) (enzyme)”, the pKd in test [1] was 6.77.

Consider “MBP-tagged Abl2-557-688 (from UniProt Q4JIM5 557-688) (domain or fragment)”, for which the pKd in test [1] is 5.89.

Regarding “MBP-tagged Abl2 (from UniProt Q4JIM5 74-1182) (enzyme)”, the values for the pKd in test [2], in test [3] and in test [1] were 6.44, less than 5.52 and 6.68, respectively.

For “Abl2-N-688 (from UniProt Q4JIM5 74-688) (domain or fragment)”, the pKd in test [1] is 6.62.

In test [1], “Abl2-557-C (from UniProt Q4JIM5 557-1182) (domain or fragment)” gave a pKd of 6.15.
